Test results reported in patent US20090285799A1.

Columns and labels:
[1] = target: T1, human IL-13Rα1 on normal human dermal fibroblast (NHDF) cells (human) (UniProt P78552); assay: cell-based or functional assay
T1 sequence: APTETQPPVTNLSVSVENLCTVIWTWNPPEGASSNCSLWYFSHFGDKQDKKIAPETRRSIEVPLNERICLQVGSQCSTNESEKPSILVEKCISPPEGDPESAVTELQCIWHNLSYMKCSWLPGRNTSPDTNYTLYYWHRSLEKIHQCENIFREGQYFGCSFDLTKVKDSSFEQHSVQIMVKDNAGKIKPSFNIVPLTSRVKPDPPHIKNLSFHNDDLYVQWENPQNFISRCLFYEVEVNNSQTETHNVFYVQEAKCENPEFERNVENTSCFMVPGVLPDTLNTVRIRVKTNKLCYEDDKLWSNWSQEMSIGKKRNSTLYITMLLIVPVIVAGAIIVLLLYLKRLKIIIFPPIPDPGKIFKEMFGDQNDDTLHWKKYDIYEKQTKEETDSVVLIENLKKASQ

[2] = target: T2, hIL-13Rα1.ECR (N-terminal FLAG-tagged fusion protein of the extracellular region of human IL-13Rα1) (human) (UniProt P78552); assay: ELISA on plate-bound hIL-13Rα1.ECR
T2 sequence: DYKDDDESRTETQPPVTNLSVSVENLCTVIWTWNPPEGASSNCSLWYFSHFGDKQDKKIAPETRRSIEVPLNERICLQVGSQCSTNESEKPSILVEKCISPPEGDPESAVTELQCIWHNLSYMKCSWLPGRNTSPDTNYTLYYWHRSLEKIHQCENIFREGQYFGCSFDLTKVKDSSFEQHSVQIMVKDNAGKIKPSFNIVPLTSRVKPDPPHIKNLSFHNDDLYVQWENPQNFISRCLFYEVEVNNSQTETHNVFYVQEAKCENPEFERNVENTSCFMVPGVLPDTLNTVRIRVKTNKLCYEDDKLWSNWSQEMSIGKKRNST

[3] = target: T2, hIL-13Rα1.ECR (N-terminal FLAG-tagged fusion protein of the extracellular region of human IL-13Rα1) (human); assay: BIACORE SPR, hIL-13Rα1.ECR immobilized on CM5 chip, antibody as analyte, bivalent model

NHDF cells IL-13 Eotaxin release (IC50) [on average] [1]: 0.35 µg/mL
Kd [2]: 1.2 nM
Kd [3]: 5.8 nM
B1: 4A10 (antibody, part only; not given: light chain, V domains shown, part only)
VH: QVQLVESGGGVVQPGRSLRLSCAASGFTFSNYGMHWVRQAPGKGLEWVAAIWYDGSDKNYADSVKGRVTISRDTSKKTLYLQMNSLRAEDTAIYYCAREITIMRGLIKNYYYYGMDVWGQGTTVTVSS
